Assay results as given in patent US20240254204A1 (published 2024).
Positions count from the first letter of the chain named.

Assays:
Bat CoV Rs2018B = Bat CoV Rs2018B (SC1r-CoV Rs2018B)
Bat CoV WIV-1 = Bat CoV WIV-1 (SC1r-CoV WIV-1)
Bat CoV RsSHC014 = Bat CoV RsSHC014 (SC1r-CoV RsSHC014)
SARS-CoV-2 Lambda = SARS-CoV-2 Lambda (SARS-CoV-2 Lambda)
SARS-COV-2 B.1.351 RBD = SARS-COV-2 B.1.351 RBD (SARS-CoV-2 B.1.351 (Beta))
[1] = target: SARS-COV-2 Omicron BA.2 RBD (SARS-CoV-2 Omicron BA.2)
[2] = target: SARS-COV-2 Omicron BA.1 RBD (SARS-CoV-2 Omicron BA.1)
SC2r-COV RaTG13 RBD = SC2r-COV RaTG13 RBD (SC2r-CoV RaTG13 (bat))

B1: F5 (antibody, V domains shown)
VH: QVQLQESGPGLVKPSETLSLTCTVSGGSIIGYYWSWIRQPPGKGLEWIGYIYFSANTNYNPSLKSRVTMSVDMSKKQFSLKLRSVTAADTAVYYCARGGGYLETGPLDFWGQGILVTVSS
VL: DIVMTQSPLSLPVTPGEPASISCRSSQSLMQLNGYNYLAWYLQRPGQSPQLLIYLGSTRASGVPDRFSGSGSGTDFTLKITRVEAEDVGVYYCMQGLQIPGTFGQGTRLEIK
In the case of B1, the IC50 (SARS-CoV-1) is reported as 0.019 µg/mL, the IC50 (SARS-CoV-2) is reported as 0.03 µg/mL and the IC50 (Bat CoV LYRa11) is reported as 0.01 µg/mL. It also gave an IC50 (Bat CoV Rs2018B) of 0.015 µg/mL, an IC50 (SARS-CoV-2 Delta) of 0.034 µg/mL and an IC50 (Pangolin CoV GX-) of 0.025 µg/mL. For the same binder, the IC50 (Pangolin CoV GD-1) was 0.019 µg/mL, the IC50 (Bat CoV WIV-1) was 0.012 µg/mL and the IC50 (Bat CoV BANAL-236) was 0.033 µg/mL. It also gave an IC50 (SARS-CoV-2 Delta Plus) of 0.03 µg/mL, an IC50 (Bat CoV RsSHC014) of 0.012 µg/mL and an IC50 (SARS-CoV-2 Mu) of 0.024 µg/mL. For the same binder, the IC50 (Bat CoV BANAL-52) was 0.027 µg/mL and the IC50 (SARS-CoV-2 Lambda) was 0.014 µg/mL.

B2: Antibody 11 (SS6V11-E7) (antibody, V domains shown)
VH: QVQLQESGPGLVKPSETLSLTCTVSGGFIGPHYWSWVRQPPGKGLEWIGYIYISGSTNYNPSLKSRLTISVDMSKSQFSLTLSSATAADTAVYYCARGGGYLETGPFEYWGQGTLVTVSS
VL: B1 VL with M30L, L32N, R44K, G56S, T81S, G96S
With B2 the IC50 (SARS-COV-2 B.1.351 RBD) was 0.044 µg/mL and the IC50 [1] was 0.222 µg/mL.

B3: E7 (antibody, V domains shown)
VH: B2 VH
VL: B1 VL with M30L, L32N, R44K, G56S, T81S, G96S
B3 showed an IC50 (Bat CoV LYRa11) of 0.021 µg/mL, an IC50 (Bat CoV Rs2018B) of 0.032 µg/mL and an IC50 (SARS-CoV-2 Delta) of 0.097 µg/mL. It also gave an IC50 (Pangolin CoV GX-) of 0.039 µg/mL, an IC50 (Pangolin CoV GD-1) of 0.073 µg/mL and an IC50 (Bat CoV WIV-1) of 0.03 µg/mL. The IC50 (Bat CoV RsSHC014) was 0.022 µg/mL and the IC50 (SARS-CoV-2 Lambda) was 0.032 µg/mL.

B4: Antibody 13 (SS6V13-F1) (antibody, V domains shown)
VH: QVQLQESGPGLVKPSETLSLTCSVSGVSILGSYWGWIRQPPGTGLQWIGYIYFSENTNYNPSLQSRVTMSLDTSKNLLSLKLSSVTAADTAVYYCARGGGYLETGPFDSWGQGTLVTVSS
VL: B1 VL with S28G, M30V, L32S, R44K, T58N, T81S, I99T
B4 was tested, and the IC50 (SARS-COV-2 B.1.351 RBD) was 0.087 µg/mL.

B5: F1 (antibody, V domains shown)
VH: B4 VH
VL: B1 VL with S28G, M30V, L32S, R44K, T58N, T81S, I99T
In the case of B5, the IC50 (SARS-CoV-1) is reported as 0.073 µg/mL, the IC50 (Bat CoV LYRa11) is reported as 0.031 µg/mL and the IC50 (SARS-CoV-2 Gamma) is reported as 0.082 µg/mL. It also gave an IC50 (SARS-CoV-2 Delta) of 0.12 µg/mL, an IC50 (Bat CoV WIV-1) of 0.037 µg/mL and an IC50 (SARS-CoV-2 Delta Plus) of 0.112 µg/mL.

B6: Antibody 20 (SS6V20-F5) (antibody, V domains shown)
VH: B1 VH
VL: B1 VL
In the case of B6, the IC50 [2] is reported as 0.072 µg/mL, the IC50 (SC2r-COV RaTG13 RBD) is reported as 0.015 µg/mL and the IC50 [1] is reported as 0.246 µg/mL.
